Test results reported in paper PMC2115704 (The Journal of Cell Biology, 1989).

Target: the molecule itself
Test: SDS-PAGE in the absence of reductant

B1: platelet thrombospondin (natural protein)
chain: not shown
modifications: iodinated (residues not stated)
- stoichiometry N: 3
